How the values were obtained:
[1] = target: T1, GPIb (glycocalicin) derived from platelets (Homo sapiens, UniProt P07359); experiment: ELISA to glycocalicin, monomer versus cysteine dimer; format: binding
T1 construct: glycocalicin (soluble, extracellular fragment of GPIbα); from tissue; host or cells: human platelets
Method: An ELISA assay was performed to ascertain the differences in binding between the monomer (the Y1 scFv-also known as Y1-kak) and the dimer Y1-cys-kak (the cysteine dimer) for antigen GPIb (glycocalicin) derived from platelets. A polyclonal anti single chain antibody and/or a novel polyclonal anti-VL (derived from rabbits) and anti-rabbit HRP, were used to detect the binding to GPIb. […] For instance, to reach 0.8 OD units 12.8 μg/ml of monomer was used compared to only 0.1 μg/ml of dimer.
100 ml of purified glycocalicin was incubated in a 96 flat well maxisorp plates, overnight at 4 degrees celsius. The plate was washed with PBST (PBS+0.05% tween) 3 times, then […] of PBST-milk (PBST+2% Non fat milk), for 1 hr at room temperature. The plate was washed with PBST, and the monomer or dimer (100 ml) was added in PBST-milk at different concentrations for 1 hr at room temp. Then the plate was washed and anti-VL polyclonal (derived from immunized rabbits with VL derived from Y1) (1:100 diluted in PBST-milk) was added for an hour. The plate was washed and anti-rabbit HRP was added for an additional hour. The plate was washed 5 times and 100 μl TMB substrate was added for approximately 15 minutes then 100 μl of 0.5 H2SO4 was added to stop the reaction. The optical density of the plate was measured at 450 nm in an ELISA reader.

KG-1 cells = experiment: AML KG-1 model in NOD/SCID mice; format: in vivo
Method: The in vivo mouse model for human AML uses SCID/NOD mice (Jackson Laboratories) inoculated with KG-1 cells derived from a human AML cell line.
In a first experiment, NOD/SCID mice were pretreated with 100 mg/kg CYTOXAN®. Four days post CYTOXAN® injection, KG-1 cells were injected intravenously into the tail vein of six groups of mice. (Table N, Groups 2 and 5-9). One group of mice (Table N, Group 1) was injected with PBS alone (control).
Beginning 19 days post KG-1 injection mice were treated with: CONY1, Doxorubicin, CONY1-Doxorubicin conjugate, or Mylotarg®. (Mylotarg® is a monoclonal antibody (anti CD33) conjugated chemically to calcheamicin recently approved by the FDA for treatment of AML patients age 60 and over in a first relapse.) Mice were treated once or three times per week for three weeks. […]
Mice were sacrificed from 60 to 65 days post cell injection. Bone marrow samples were analyzed by flow cytometry using mouse anti human CD34-FITC (IQP 144F) (or anti CD44-FITC (MCA89F, Serotec)) and Y1-Biotin/SAV-PE. […]
An additional experiment was performed in which SCID-NOD mice were i.v. injected with 3×10^4 MOLT-4 cells/mouse 5 days post treatment with cyclophosphamide. […] Bone marrow was extracted and analyzed by FACS analysis using a commercially available antiCD44 antibody for the detection of MOLT-4 cells in the mice bone marrow cell population.

MOLT-4 cells = experiment: T-ALL (MOLT4) model in SCID mice; format: in vivo
Method: The in vivo mouse model for T-ALL uses SCID mice (Jackson Laboratories) injected with MOLT4 cells derived from a T cell leukemia patient.
In one experiment, SCID mice were pretreated with 100 mg/kg Cytoxan (CTX, Cycloposphamid for injection, Mead Johnson). Eleven days after CTX injection, MOLT-4 cell were injected intravenously into the tail vein. Control mice were injected with PBS alone. One week post-MOLT-4 injection mice were injected with CONY1-Doxorubicin, which is a conjugate between scFv CON Y1 polypeptide, having KAK amino acid residues at its carboxy end and doxorubicin via a short organic linker; CONY1, which is a scFv antibody fragment derived from Y1 scFv in which the DNA sequences encoding the myc tag of Y1 were deleted and replaced with a DNA sequence encoding the amino acids lysine, alanine, lysine (KAK); or free Doxorubicin. The mice were injected three times per week for three weeks. […] (Table M).
Mice started to die 32 days post cell inoculation, and the surviving mice were sacrificed at this time. Bone marrow cells were analyzed by flow cytometry using anti-human CD44-FITC and Y1-Biotin/SAV-PE. Blood samples from several animals were monitored for platelet and white blood cell count. Livers were weighted and examined for tumor appearance. Other organs were also examined for tumor appearance.
In a second experiment, SCID mice were i.v. injected with 2×10^7 MOLT-4 cells/mouse, 5 days post treatment with cyclophosphamide. Anti-cancer agents or PBS (negative control animals) were injected i.v. three times/week from day 5 post MOLT-4 cells injection and onward. On day 35, blood was drawn from the animals, the animals were sacrificed, and their livers were excised and weighed. In the untreated, PBS-treated MOLT-4 cell-bearing animals, the liver presented with a very massive tumor growth, and its size was increased 2-3-fold relative to PBS control uninfected animals. In this experiment, there were five treatment groups:
In parallel, portions of liver tissue were taken for histology and cell harvesting for FACS analysis. The survival rate of another group of treated animals was recorded relative to that of control untreated mice.
In a third experiment, using the identical SCID/MOLT-4 protocol, there were 6 groups: […]

[2] = Pharmacokinetics of 125I-CONY1 after intravenous injection; format: in vivo, Male Balb-C mice
Method: Two to four mice were used per time point. […] Organ/tissue total and specific radioactivity values were calculated.

[3] = system: platelet-rich-plasma (PRP); experiment: Ristocetin-induced aggregation of platelet-rich plasma after preincubation with scFv; format: cell-based, human; settings: scFv 38 μg/ml
Method: The effect of Y1 (scfv) on aggregation of platelet-rich-plasma (PRP) was tested at various concentrations of Y1. PRP was pre-incubated with Y1 scfv, Y17 scfv, or a control sTM-1cFv for 4 min at 37° C. before being exposed to ristocetin, an inducer of platelet agglutination and aggregation. A reversible inhibitory effect was observed when scFv was added to PRP prior to the addition of ristocetin, and it was dose dependent.
Blood was collected into a tube containing 3.8% sodium citrate. Platelet-rich plasma was prepared by centrifugation at 250×g for 10 minutes.
(§1) For platelet aggregation studies, platelet rich plasma (PRP) and washed platelets were stirred at 500 rpm at 37° C. in whole blood Lumiaggregometer (Chronolog, Havertown,Pa.). The difference in light transmission through the platelet suspension and suspending medium was taken as 100% aggregation. The effect of Y1 on platelet aggregation was evaluated by addition of different concentration of Y1 before the addition of agonist, and the effect was recorded for four minutes.

washed platelets = experiment: Ristocetin-induced agglutination of washed platelets after preincubation with scFv; format: cell-based, human
Method: Aggregation is determined in PRP due to the presence of thrombotic agents, while agglutination is determined in washed platelets. The effect of Y1 (scFv) on agglutination of washed platelets was tested at various concentrations of Y1. Platelets were pre-incubated with Y1 scFv, Y17 scFv, Y16-scFv, or a control TM-1 scFv for 4 min at 37° C. before being exposed to ristocetin, an inducer of platelet agglutination and aggregation.
Platelet concentrate in acid-citrate-dextrose (ACD) was obtained from a blood bank, platelets were isolated, washed once in buffer containing ACD and saline in a ratio of 1:7. The platelets were centrifuged at 800 g for 10 min after each wash and were resuspended in Tyrodes solution (2 mM MgCl2, 137 mM NaCl, 2.68 mM KCl, 3 mM NaH2PO4, 0.1% glucose, 5 mM Hepes and 0.35% albumin, pH 7.35) and count the number of cells.
as §1
The effect of Y17-scFv on vWF-dependent agglutination of platelets was tested at different concentrations of Y17.

[4] = scFv 25 μg/ml, ristocetin = 100% agglutination

Molecule	concentration to reach 0.8 OD units [1]	prevalence of cancer cells in the bone marrow (KG-1 cells; additional experiment, day 60, CONY1 scFv 75 μg/mouse three times/week, Mylotarg 7 μg/mouse once a week)	percentage of KG-1 cells in bone marrow (KG-1 cells; first experiment, KG-1 cells incubated in vitro with scFv before injection (groups 3 and 4))	liver weight versus free Doxorubicin or untreated (MOLT-4 cells; first experiment, three times per week for three weeks, sacrifice 32 days post cell inoculation)	survival (MOLT-4 cells; mice which received continued treatment)	liver weights / tumor growth in the liver (MOLT-4 cells; second experiment, day 35, i.v. three times/week, CONY1 and conjugate 75 μg/mouse, Doxorubicin 0.1 mg/kg)	tumor growth (based on liver weights) (MOLT-4 cells; third experiment, CONY1 scFv 75 μg/mouse, Y1-IgG 5 μg/mouse)	half-life of blood clearance, first compartment ([2]; 15 μg per mouse i.v., plasma TCA precipitable radioactivity, two-compartment model)	half-life of blood clearance, second compartment ([2]; 15 μg per mouse i.v., two-compartment model)	distribution between plasma and erythrocytes ([2]; blood versus plasma radioactivity)	specific uptake in body tissues ([2]; liver, lung, kidney, spleen, bone marrow, 5 minutes to 24 hours)	% aggregation [3]	% inhibition ([3]; listed as Y17)	inhibition of vWF-dependent platelet agglutination induced by ristocetin (washed platelets; final concentration of 10, 25 or 50 μg/ml)	% agglutination (washed platelets; [4])	% inhibition (washed platelets; [4])
CONY1: scFv derived from Y1 scFv with the myc tag replaced by lysine, alanine, lysine (KAK), SEQ ID NO: 204 (protein, listed as Homo sapiens) scFv: MKYLLPTAAAGLLLLAAQPAMAEVQLVESGGGVVRPGGSLRLSCAASGFTFDDYGMSWVRQAPGKGLEWVSGINWNGGSTGYADSVKGRFTISRDNAKNSLYLQMNSLRAEDTAVYYCARMRAPVIWGQGTLVTVSRGGGGSGGGGSGGGGSSELTQDPAVSVALGQTVRITCQGDSLRSYYASWYQQKPGQAPVLVIYGKNNRPSGIPDRFSGSSSGNTASLTITGAQAEDEADYYCNSRDSSGNHVVFGGGTKLTVLGAAAKAK	12.8 µg/mL	had no effect	significantly lower percentage	weighted significantly less	prolonged	markedly inhibited tumor growth in the liver	inhibited tumor growth	0.583 h	3.17 h	practically all of the CONY-1 resided in the plasma and did not adhere to erythrocytes	no major specific uptake					
Y17 scFv: second scFv clone binding platelets and myelogenous leukemia cell lines, SEQ ID NO: 203 (protein, listed as Homo sapiens) scFv: MKYLLPTAAAGLLLLAAQPAMAEVQLVESGGGVVRPGGSLRLSCAASGFTFDDYGMSWVRQAPGKGLEWVSGINWNGGSTGYADSVKGRFTISRDNAKNSLYLQMNSLRAEDTAVYYCARLTHPYFWGQGTLVTVSRGGGGSGGGGSGGGGSSELTQDPAVSVALGQTVRITCQGDSLRSYYASWYQQKPGQAPVLVIYGKNNRPSGIPDRFSGSSSGNTASLTITGAQAEDEADYYCNSRDSSGNHVVFGGGTKLTVLGAAAEQKLISEEDLNGAA												100%	did not inhibit	did not inhibit	85%	15%
